Assay results taken from patent publication US20140050720A1 (Scripps Research, published 2014).

B1: BLV1H12-GLP-1 fusion antibody (antibody, human IgG1)
heavy: not shown
light: QAVLNQPSSVSGSLGQRVSITCSGSSSNVGNGYVSWYQLIPGSAPRTLIYGDTSRASGVPDRFSGSRSGNTATLTISSLQAEDEADYFCASAEDSSSNAVFGSGTTLTVLGQPKSPPSVTLFPPSTEELNGNKATLVCLISDFYPGSVTVVWKADGSTITRNVETTRASKQSNSKYAASSYLSLTSSDWKSKGSYSCEVTHEGSTVTKTVKPSECS
B2: BLV1H12-Ex-4 fusion antibody (antibody, human IgG1)
heavy: not shown
light: B1 light
B3: BLV1H12-GLP-1 clip fusion antibody (antibody)
heavy: not shown
light: B1 light
modifications: cleaved by Factor Xa at the IEGR site in front of GLP-1, releasing the N-terminus of GLP-1

Biological target: GLP-1 receptor on HEK293 cells carrying a cAMP responsive luciferase reporter gene (UniProt P43220 24-463, limits assumed)
Assay: cell-based or functional assay

Row | Binder | RLU (cAMP responsive luciferase reporter) at 1.26953 nM | RLU (cAMP responsive luciferase reporter) at 2.53906 nM | RLU (cAMP responsive luciferase reporter) at 5.07813 nM | RLU (cAMP responsive luciferase reporter) at 10.15625 nM | RLU (cAMP responsive luciferase reporter) at 20.3125 nM | RLU (cAMP responsive luciferase reporter) at 40.625 nM | RLU (cAMP responsive luciferase reporter) at 81.25 nM | RLU (cAMP responsive luciferase reporter) at 162.5 nM | RLU (cAMP responsive luciferase reporter) at 325 nM | RLU (cAMP responsive luciferase reporter) at 650 nM | RLU (cAMP responsive luciferase reporter) at 1300 nM
1 | B1 | 18600 RLU | 24500 RLU | 43200 RLU | 66600 RLU | 105000 RLU | 144000 RLU | 151000 RLU | 167000 RLU | 171000 RLU | 160000 RLU | 185000 RLU
2 | B2 | 6120 RLU | 6360 RLU | 8500 RLU | 10400 RLU | 19300 RLU | 28000 RLU | 54800 RLU | 90700 RLU | 118000 RLU | 135000 RLU | 160000 RLU
3 | B3 | 4740 RLU | 5800 RLU | 4400 RLU | 5200 RLU | 7780 RLU | 13600 RLU | 33800 RLU | 65800 RLU | 101000 RLU | 141000 RLU | 169000 RLU
